# Assay results published in patent US20060257938A1, “Method of screening for drugs that block ligand binding to a lipid binding protein” (priority 2005, published 2006).
# Values joined by “and” are separate entries in the source; they are usually repeats but may differ in a detail not shown here. Identical values can stand only once.
# Assays:
# Assay type in all cases: binding
# Details in all cases: response relative to ADIFAB2
# [1] = Probe fluorescence ratio response to arachidonic acid relative to ADIFAB2
# In short: (§1)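 Each fatty acid's response was expressed relative to ADIFAB2, the rI-FABP-L72A probe, as ΔR/ΔRreference. ΔR is the change in the background-corrected two-wavelength intensity ratio R=Fλ1/Fλ2 from its analyte-free baseline R0. Emission was read near about 420-480 nm for unbound and about 495-580 nm for FFA-bound probe.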
# [2] = Probe fluorescence ratio response to linolenic acid relative to ADIFAB2
# In short: as §1
# [3] = Probe fluorescence ratio response to linoleic acid relative to ADIFAB2
# In short: as §1
# [4] = Probe fluorescence ratio response to oleic acid relative to ADIFAB2
# In short: as §1
# [5] = Probe fluorescence ratio response to palmitic acid relative to ADIFAB2
# In short: as §1
Molecule,DR/DR AA ([1]; Arachidonic acid),DR/DR LNA [2],DR/DR LA [3],DR/DR OA [4],DR/DR PA [5],DR/DR AA ([1]; arachidonic acid)
"68S, 72A (protein, listed as Rattus norvegicus, PEPTIDE (1)...(131) wild-type rat intestinal fatty acid binding protein) AFDGTWKVDRNENYEKFMEKMGINVVKRKLGAHDNLKLTITQEGNKFTVKESSNFRNIDVVFELGVDSAYSAADGTELTGTWTMEGNKLVGKFKRVDNGKELIAVREISGNELIQTYTYEGVEAKRIFKKE",0.20,0.14,0.14,0.14,0.10,
"72G (protein, listed as Rattus norvegicus, PEPTIDE (1)...(131) wild-type rat intestinal fatty acid binding protein) AFDGTWKVDRNENYEKFMEKMGINVVKRKLGAHDNLKLTITQEGNKFTVKESSNFRNIDVVFELGVDFAYSGADGTELTGTWTMEGNKLVGKFKRVDNGKELIAVREISGNELIQTYTYEGVEAKRIFKKE",0.62,0.48 and 0.590,0.48 and 0.544,0.52 and 0.628,0.26 and 0.307,0.871
"70M, 72A (protein, listed as Rattus norvegicus, PEPTIDE (1)...(131) wild-type rat intestinal fatty acid binding protein) AFDGTWKVDRNENYEKFMEKMGINVVKRKLGAHDNLKLTITQEGNKFTVKESSNFRNIDVVFELGVDFAMSAADGTELTGTWTMEGNKLVGKFKRVDNGKELIAVREISGNELIQTYTYEGVEAKRIFKKE",0.34,0.53,0.39,0.42,0.26,
"104D1, 72A (protein, listed as Rattus norvegicus, PEPTIDE (1)...(131) wild-type rat intestinal fatty acid binding protein) AFDGTWKVDRNENYEKFMEKMGINVVKRKLGAHDNLKLTITQEGNKFTVKESSNFRNIDVVFELGVDFAYSAADGTELTGTWTMEGNKLVGKFKRVDNGKELIDVREISGNELIQTYTYEGVEAKRIFKKE",,0.67,0.71,0.64,0.34,0.48
"70C, 72A (protein, listed as Rattus norvegicus, PEPTIDE (1)...(131) wild-type rat intestinal fatty acid binding protein) AFDGTWKVDRNENYEKFMEKMGINVVKRKLGAHDNLKLTITQEGNKFTVKESSNFRNIDVVFELGVDFACSAADGTELTGTWTMEGNKLVGKFKRVDNGKELIAVREISGNELIQTYTYEGVEAKRIFKKE",0.23,0.24,0.27,0.24,0.14,
"72C (protein, listed as Rattus norvegicus, PEPTIDE (1)...(131) wild-type rat intestinal fatty acid binding protein) AFDGTWKVDRNENYEKFMEKMGINVVKRKLGAHDNLKLTITQEGNKFTVKESSNFRNIDVVFELGVDFAYSCADGTELTGTWTMEGNKLVGKFKRVDNGKELIAVREISGNELIQTYTYEGVEAKRIFKKE",0.14,0.17,0.25,0.20,0.12,
"68Y, 72A (protein, listed as Rattus norvegicus, PEPTIDE (1)...(131) wild-type rat intestinal fatty acid binding protein) AFDGTWKVDRNENYEKFMEKMGINVVKRKLGAHDNLKLTITQEGNKFTVKESSNFRNIDVVFELGVDYAYSAADGTELTGTWTMEGNKLVGKFKRVDNGKELIAVREISGNELIQTYTYEGVEAKRIFKKE",0.42,0.41,0.36,0.46,0.35,
"68V, 72A (protein, listed as Rattus norvegicus, PEPTIDE (1)...(131) wild-type rat intestinal fatty acid binding protein) AFDGTWKVDRNENYEKFMEKMGINVVKRKLGAHDNLKLTITQEGNKFTVKESSNFRNIDVVFELGVDVAYSAADGTELTGTWTMEGNKLVGKFKRVDNGKELIAVREISGNELIQTYTYEGVEAKRIFKKE",0.29,0.22,0.23,0.25,0.19,
"72N (protein, listed as Rattus norvegicus, PEPTIDE (1)...(131) wild-type rat intestinal fatty acid binding protein) AFDGTWKVDRNENYEKFMEKMGINVVKRKLGAHDNLKLTITQEGNKFTVKESSNFRNIDVVFELGVDFAYSNADGTELTGTWTMEGNKLVGKFKRVDNGKELIAVREISGNELIQTYTYEGVEAKRIFKKE",0.65,0.70 and 0.702,0.77,0.83 and 0.831,0.44 and 0.441,0.652
"72M (protein, listed as Rattus norvegicus, PEPTIDE (1)...(131) wild-type rat intestinal fatty acid binding protein) AFDGTWKVDRNENYEKFMEKMGINVVKRKLGAHDNLKLTITQEGNKFTVKESSNFRNIDVVFELGVDFAYSMADGTELTGTWTMEGNKLVGKFKRVDNGKELIAVREISGNELIQTYTYEGVEAKRIFKKE",1.31,1.35,1.46,1.49,1.32,
"104F1, 72A (protein, listed as Rattus norvegicus, PEPTIDE (1)...(131) wild-type rat intestinal fatty acid binding protein) AFDGTWKVDRNENYEKFMEKMGINVVKRKLGAHDNLKLTITQEGNKFTVKESSNFRNIDVVFELGVDFAYSAADGTELTGTWTMEGNKLVGKFKRVDNGKELIFVREISGNELIQTYTYEGVEAKRIFKKE",,0.42,0.47,0.45,0.27,0.66
"68T, 72A (protein, listed as Rattus norvegicus, PEPTIDE (1)...(131) wild-type rat intestinal fatty acid binding protein) AFDGTWKVDRNENYEKFMEKMGINVVKRKLGAHDNLKLTITQEGNKFTVKESSNFRNIDVVFELGVDTAYSAADGTELTGTWTMEGNKLVGKFKRVDNGKELIAVREISGNELIQTYTYEGVEAKRIFKKE",0.18,0.12,0.11,0.13,0.10,
"72D (protein, listed as Rattus norvegicus, PEPTIDE (1)...(131) wild-type rat intestinal fatty acid binding protein) AFDGTWKVDRNENYEKFMEKMGINVVKRKLGAHDNLKLTITQEGNKFTVKESSNFRNIDVVFELGVDFAYSDADGTELTGTWTMEGNKLVGKFKRVDNGKELIAVREISGNELIQTYTYEGVEAKRIFKKE",0.27,0.41,0.37,0.28,0.24,
"72E (protein, listed as Rattus norvegicus, PEPTIDE (1)...(131) wild-type rat intestinal fatty acid binding protein) AFDGTWKVDRNENYEKFMEKMGINVVKRKLGAHDNLKLTITQEGNKFTVKESSNFRNIDVVFELGVDFAYSEADGTELTGTWTMEGNKLVGKFKRVDNGKELIAVREISGNELIQTYTYEGVEAKRIFKKE",0.27,0.36,0.38,0.34,0.19,
"72K (protein, listed as Rattus norvegicus, PEPTIDE (1)...(131) wild-type rat intestinal fatty acid binding protein) AFDGTWKVDRNENYEKFMEKMGINVVKRKLGAHDNLKLTITQEGNKFTVKESSNFRNIDVVFELGVDFAYSKADGTELTGTWTMEGNKLVGKFKRVDNGKELIAVREISGNELIQTYTYEGVEAKRIFKKE",0.26,0.31,0.26,0.19,0.13,
